Sequences and labels used below:
B1: glmS ribozyme (parent)
chain: AUAAAAGCGCCAGAACUACAGAAAUGUAGUUGACGAGGAGGAGGUUUAUCGAAUUUUCGGCGGAUGCCUCCAAA

What all share (conditions): with glucosamine-6-phosphate
The variants in data set [1] derive from B1. Description: self-cleavage kobs at 40 uM GlcN6P; higher = faster cleavage; RNA array. In outline:
(§1)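 Barcoded ribozyme variants, transcribed in situ by E. coli RNA polymerase on sequenced MiSeq chips, were followed via a hybridised Cy3 probe at 37 °C. Glucosamine-6-phosphate ranged from 40 μM to 10 mM in HEPES/KCl/Mg(OAc)2 buffer. kobs came from decay fits to per-tile medians, and kcat and KM from weighted Michaelis–Menten fits.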

Data set [2] covers variants of B1. The experiment in a line: self-cleavage kobs at 640 uM GlcN6P; higher = faster cleavage; RNA array. In short, it runs like this:
as §1

The variants in data set [3] derive from B1. The experiment in a line: self-cleavage kobs at 10000 uM GlcN6P; higher = faster cleavage; RNA array. In short, it runs like this: as §1
In data set [4] the parent is B1. Description: self-cleavage kobs at 2500 uM GlcN6P; higher = faster cleavage; RNA array. In short, it runs like this:
as §1

In data set [5] the parent is B1. Description: kcat; higher = faster cleavage; RNA array. In outline:
as §1

The variants in data set [6] derive from B1. Description: self-cleavage kobs at 160 uM GlcN6P; higher = faster cleavage; RNA array. In short, it runs like this:
as §1

Variants of B1 are the subject of data set [7]. Description: KM; higher = weaker cofactor use; RNA array. In outline:
as §1

± gives the standard error. For some of these results: Fewer inactive variants are shown than the library holds. Bounds are passed on as bounds.

The term kcat denotes the number of substrate molecules converted per active site and unit of time at saturation. In general, KM refers to the concentration of substrate that gives half-maximal velocity.

Regarding C10G G51C C58A, in the data set with glucosamine-6-phosphate [1], the “self-cleavage kobs at 40 uM GlcN6P” value was less than 1e-05 s⁻¹. For the same variant, the “self-cleavage kobs at 640 uM GlcN6P” value with glucosamine-6-phosphate [2] was less than 1e-05 s⁻¹. For the same variant, the “self-cleavage kobs at 10000 uM GlcN6P” value in the data set with glucosamine-6-phosphate [3] was less than 1e-05 s⁻¹.

Regarding C11U G44C G60U, the “self-cleavage kobs at 40 uM GlcN6P” value with glucosamine-6-phosphate [1] was less than 1e-05 s⁻¹. The “self-cleavage kobs at 10000 uM GlcN6P” value in the data set with glucosamine-6-phosphate [3] was less than 1e-05 s⁻¹.

On to G26A A39U G40C, for which the “self-cleavage kobs at 40 uM GlcN6P” value in the data set with glucosamine-6-phosphate [1] amounted to 5.34e-05 ± 1.4e-05 s⁻¹. Besides, the “self-cleavage kobs at 640 uM GlcN6P” value with glucosamine-6-phosphate [2] was 0.000262 ± 8.2e-05 s⁻¹. Further, the “self-cleavage kobs at 2500 uM GlcN6P” value with glucosamine-6-phosphate [4] amounted to 0.000935 ± 0.00028 s⁻¹.

As to G32U A39U G60A C67U, the “self-cleavage kobs at 40 uM GlcN6P” value in the data set with glucosamine-6-phosphate [1] is less than 1e-05 s⁻¹. The “self-cleavage kobs at 10000 uM GlcN6P” value in the data set with glucosamine-6-phosphate [3] is less than 1e-05 s⁻¹.

As to A14C C34U G60U, the “self-cleavage kobs at 40 uM GlcN6P” value with glucosamine-6-phosphate [1] was less than 1e-05 s⁻¹. In addition, the “self-cleavage kobs at 640 uM GlcN6P” value with glucosamine-6-phosphate [2] is less than 1e-05 s⁻¹. In addition, the “self-cleavage kobs at 2500 uM GlcN6P” value with glucosamine-6-phosphate [4] is less than 1e-05 s⁻¹. The “self-cleavage kobs at 10000 uM GlcN6P” value with glucosamine-6-phosphate [3] was less than 1e-05 s⁻¹.

For A52G A53C, the “self-cleavage kobs at 40 uM GlcN6P” value with glucosamine-6-phosphate [1] was less than 1e-05 s⁻¹.

With A14U G43A U49A C58U, in the data set with glucosamine-6-phosphate [1], the “self-cleavage kobs at 40 uM GlcN6P” value is less than 1e-05 s⁻¹. In the data set with glucosamine-6-phosphate [3], the “self-cleavage kobs at 10000 uM GlcN6P” value was less than 1e-05 s⁻¹.

Turning to U57G C68A, the turnover number (kcat) with glucosamine-6-phosphate [5] came out at 2.56e-05 ± 8.2e-06 s⁻¹. For the same variant, the “self-cleavage kobs at 640 uM GlcN6P” value with glucosamine-6-phosphate [2] amounted to 3.37e-05 ± 1.4e-05 s⁻¹.

Take G7U C10G A15C G37C: the “self-cleavage kobs at 40 uM GlcN6P” value in the data set with glucosamine-6-phosphate [1] was less than 1e-05 s⁻¹.

For the variant A36G A52G, the “self-cleavage kobs at 40 uM GlcN6P” value in the data set with glucosamine-6-phosphate [1] is less than 1e-05 s⁻¹. In addition, the “self-cleavage kobs at 160 uM GlcN6P” value in the data set with glucosamine-6-phosphate [6] was less than 1e-05 s⁻¹. Besides, in the data set with glucosamine-6-phosphate [2], the “self-cleavage kobs at 640 uM GlcN6P” value is less than 1e-05 s⁻¹. Further, the “self-cleavage kobs at 10000 uM GlcN6P” value with glucosamine-6-phosphate [3] was less than 1e-05 s⁻¹.

For G13C G51C G63C, the “self-cleavage kobs at 40 uM GlcN6P” value with glucosamine-6-phosphate [1] was less than 1e-05 s⁻¹.

In the case of U45A A48C, in the data set with glucosamine-6-phosphate [5], the kcat was 0.000559 ± 7.1e-05 s⁻¹. Besides, the KM in the data set with glucosamine-6-phosphate [7] worked out at 2130 ± 560 µM. For the same variant, the “self-cleavage kobs at 640 uM GlcN6P” value in the data set with glucosamine-6-phosphate [2] was 0.000131 ± 2.3e-05 s⁻¹. Also, in the data set with glucosamine-6-phosphate [4], the “self-cleavage kobs at 2500 uM GlcN6P” value stood at 0.000382 ± 8.1e-05 s⁻¹. For the same variant, the “self-cleavage kobs at 10000 uM GlcN6P” value with glucosamine-6-phosphate [3] is 0.000445 ± 5.6e-05 s⁻¹.

C16G U31C: the kcat with glucosamine-6-phosphate [5] worked out at 0.000606 ± 0.00011 s⁻¹. The KM with glucosamine-6-phosphate [7] worked out at 3720 ± 980 µM. In addition, in the data set with glucosamine-6-phosphate [2], the “self-cleavage kobs at 640 uM GlcN6P” value was determined as 8.88e-05 ± 1.7e-05 s⁻¹. Further, the “self-cleavage kobs at 2500 uM GlcN6P” value with glucosamine-6-phosphate [4] is 0.000269 ± 4.6e-05 s⁻¹. The “self-cleavage kobs at 10000 uM GlcN6P” value with glucosamine-6-phosphate [3] amounted to 0.000401 ± 0.00011 s⁻¹.

In the case of C10U C58A C68A, the “self-cleavage kobs at 40 uM GlcN6P” value in the data set with glucosamine-6-phosphate [1] was less than 1e-05 s⁻¹. Besides, in the data set with glucosamine-6-phosphate [3], the “self-cleavage kobs at 10000 uM GlcN6P” value was less than 1e-05 s⁻¹.

With G59A U65C, the kcat with glucosamine-6-phosphate [5] was determined as 1.55e-05 ± 5.6e-06 s⁻¹.

For the variant G43U G59A G60C, the “self-cleavage kobs at 40 uM GlcN6P” value in the data set with glucosamine-6-phosphate [1] is less than 1e-05 s⁻¹. In the data set with glucosamine-6-phosphate [4], the “self-cleavage kobs at 2500 uM GlcN6P” value is less than 1e-05 s⁻¹. In addition, in the data set with glucosamine-6-phosphate [3], the “self-cleavage kobs at 10000 uM GlcN6P” value was less than 1e-05 s⁻¹.

For G9A A48G, the “self-cleavage kobs at 40 uM GlcN6P” value in the data set with glucosamine-6-phosphate [1] was less than 1e-05 s⁻¹. Besides, the “self-cleavage kobs at 640 uM GlcN6P” value in the data set with glucosamine-6-phosphate [2] was less than 1e-05 s⁻¹. In addition, the “self-cleavage kobs at 2500 uM GlcN6P” value in the data set with glucosamine-6-phosphate [4] is less than 1e-05 s⁻¹. Besides, the “self-cleavage kobs at 10000 uM GlcN6P” value in the data set with glucosamine-6-phosphate [3] is less than 1e-05 s⁻¹.

Consider G44U U57G, for which the kcat with glucosamine-6-phosphate [5] is less than 1e-05 s⁻¹. The “self-cleavage kobs at 40 uM GlcN6P” value with glucosamine-6-phosphate [1] is less than 1e-05 s⁻¹. In the data set with glucosamine-6-phosphate [6], the “self-cleavage kobs at 160 uM GlcN6P” value was less than 1e-05 s⁻¹. Also, the “self-cleavage kobs at 2500 uM GlcN6P” value with glucosamine-6-phosphate [4] was less than 1e-05 s⁻¹. The “self-cleavage kobs at 10000 uM GlcN6P” value with glucosamine-6-phosphate [3] is less than 1e-05 s⁻¹.

U65A C71G: in the data set with glucosamine-6-phosphate [5], the kcat came out at 0.000477 ± 0.00013 s⁻¹. In the data set with glucosamine-6-phosphate [7], the KM is 1710 ± 720 µM. Further, the “self-cleavage kobs at 160 uM GlcN6P” value with glucosamine-6-phosphate [6] was 4.31e-05 ± 1.1e-05 s⁻¹. In addition, in the data set with glucosamine-6-phosphate [2], the “self-cleavage kobs at 640 uM GlcN6P” value was found to be 0.000124 ± 1.6e-05 s⁻¹. Besides, the “self-cleavage kobs at 2500 uM GlcN6P” value in the data set with glucosamine-6-phosphate [4] turned out to be 0.000382 ± 9.3e-05 s⁻¹. Further, the “self-cleavage kobs at 10000 uM GlcN6P” value with glucosamine-6-phosphate [3] was 0.000383 ± 8.9e-05 s⁻¹.

For G38U U46G, the “self-cleavage kobs at 40 uM GlcN6P” value with glucosamine-6-phosphate [1] is less than 1e-05 s⁻¹. For the same variant, in the data set with glucosamine-6-phosphate [6], the “self-cleavage kobs at 160 uM GlcN6P” value was less than 1e-05 s⁻¹. Moreover, in the data set with glucosamine-6-phosphate [4], the “self-cleavage kobs at 2500 uM GlcN6P” value was less than 1e-05 s⁻¹.

On to A15G G35U, for which, in the data set with glucosamine-6-phosphate [1], the “self-cleavage kobs at 40 uM GlcN6P” value is less than 1e-05 s⁻¹. The “self-cleavage kobs at 160 uM GlcN6P” value in the data set with glucosamine-6-phosphate [6] was less than 1e-05 s⁻¹. Moreover, in the data set with glucosamine-6-phosphate [4], the “self-cleavage kobs at 2500 uM GlcN6P” value is less than 1e-05 s⁻¹. Also, the “self-cleavage kobs at 10000 uM GlcN6P” value with glucosamine-6-phosphate [3] is less than 1e-05 s⁻¹.

For the variant C8A U45G U69C C71G, in the data set with glucosamine-6-phosphate [1], the “self-cleavage kobs at 40 uM GlcN6P” value is less than 1e-05 s⁻¹.

(Values after the supplement of paper PMC7125110.)
